Laboratory results taken from article PMC3220584 (The Journal of Biological Chemistry, 2011).

Biological target: the molecule itself
Experiment: SEC-MALS

B1: human collagen VI α3(VI) N-terminal N9-N1 region (domain or fragment, UniProt P12111 237-2028, looked up)
chain: AQDSADIIFLIDGSNNTGSVNFAVILDFLVNLLEKLPIGTQQIRVGVVQFSDEPRTMFSLDTYSTKAQVLGAVKALGFAGGELANIGLALDFVVENHFTRAGGSRVEEGVPQVLVLISAGPSSDEIRYGVVALKQASVFSFGLGAQAASRAELQHIATDDNLVFTVPEFRSFGDLQEKLLPYIVGVAQRHIVLKPPTIVTQVIEVNKRDIVFLVDGSSALGLANFNAIRDFIAKVIQRLEIGQDLIQVAVAQYADTVRPEFYFNTHPTKREVITAVRKMKPLDGSALYTGSALDFVRNNLFTSSAGYRAAEGIPKLLVLITGGKSLDEISQPAQELKRSSIMAFAIGNKGADQAELEEIAFDSSLVFIPAEFRAAPLQGMLPGLLAPLRTLSGTPEVHSNKRDIIFLLDGSANVGKTNFPYVRDFVMNLVNSLDIGNDNIRVGLVQFSDTPVTEFSLNTYQTKSDILGHLRQLQLQGGSGLNTGSALSYVYANHFTEAGGSRIREHVPQLLLLLTAGQSEDSYLQAANALTRAGILTFCVGASQANKAELEQIAFNPSLVYLMDDFSSLPALPQQLIQPLTTYVSGGVEEVPLAQPESKRDILFLFDGSANLVGQFPVVRDFLYKIIDELNVKPEGTRIAVAQYSDDVKVESRFDEHQSKPEILNLVKRMKIKTGKALNLGYALDYAQRYIFVKSAGSRIEDGVLQFLVLLVAGRSSDRVDGPASNLKQSGVVPFIFQAKNADPAELEQIVLSPAFILAAESLPKIGDLHPQIVNLLKSVHNGAPAPVSGEKDVVFLLDGSEGVRSGFPLLKEFVQRVVESLDVGQDRVRVAVVQYSDRTRPEFYLNSYMNKQDVVNAVRQLTLLGGPTPNTGAALEFVLRNILVSSAGSRITEGVPQLLIVLTADRSGDDVRNPSVVVKRGGAVPIGIGIGNADITEMQTISFIPDFAVAIPTFRQLGTVQQVISERVTQLTREELSRLQPVLQPLPSPGVGGKRDVVFLIDGSQSAGPEFQYVRTLIERLVDYLDVGFDTTRVAVIQFSDDPKVEFLLNAHSSKDEVQNAVQRLRPKGGRQINVGNALEYVSRNIFKRPLGSRIEEGVPQFLVLISSGKSDDEVDDPAVELKQFGVAPFTIARNADQEELVKISLSPEYVFSVSTFRELPSLEQKLLTPITTLTSEQIQKLLASTRYPPPAVESDAADIVFLIDSSEGVRPDGFAHIRDFVSRIVRRLNIGPSKVRVGVVQFSNDVFPEFYLKTYRSQAPVLDAIRRLRLRGGSPLNTGKALEFVARNLFVKSAGSRIEDGVPQHLVLVLGGKSQDDVSRFAQVIRSSGIVSLGVGDRNIDRTELQTITNDPRLVFTVREFRELPNIEERIMNSFGPSAATPAPPGVDTPPPSRPEKKKADIVFLLDGSINFRRDSFQEVLRFVSEIVDTVYEDGDSIQVGLVQYNSDPTDEFFLKDFSTKRQIIDAINKVVYKGGRHANTKVGLEHLRVNHFVPEAGSRLDQRVPQIAFVITGGKSVEDAQDVSLALTQRGVKVFAVGVRNIDSEEVGKIASNSATAFRVGNVQELSELSEQVLETLHDAMHETLCPGVTDAAKACNLDVILGFDGSRDQNVFVAQKGFESKVDAILNRISQMHRVSCSGGRSPTVRVSVVANTPSGPVEAFDFDEYQPEMLEKFRNMRSQHPYVLTEDTLKVYLNKFRQSSPDSVKVVIHFTDGADGDLADLHRASENLRQEGVRALILVGLERVVNLERLMHLEFGRGFMYDRPLRLNLLDLDYELAEQLDNIAEKA
stoichiometry N: 2
